Columns and labels:
Cysteine-SpyCatcher [1] = assay: pull-down; Cys-SpyCatcher on magnetic beads (50 µl, 20 mg/ml) mixed with 200 µl crude leaf filtrate of plants expressing Plastid-SpyTag; 30 min at 4 °C, chloroplast isolation buffer (10 mM HEPES-KOH pH 7.0, 0.33 M sorbitol), three washes; chloroplasts on beads read by CLSM and counted; wild type filtrate as control
Cysteine-SpyCatcher [2] = target: Cysteine-SpyCatcher
Cysteine-SpyCatcher [3] = assay: pull-down; Cys-SpyCatcher on magnetic beads (50 µl, 20 mg/ml) mixed with 500 µl crude leaf filtrate of plants expressing Mito-SpyTag; 30 min at 4 °C, mitochondria isolation buffer (30 mM MOPS pH 7.5, 0.3 M mannitol, 1 mM EDTA), three washes; mitochondria stained with MitoTracker Orange, read by CLSM and counted; wild type filtrate as control

Row | Substance | percent of beads that carry a chloroplast (Cysteine-SpyCatcher [1]) | enrichment of mitochondrial fumarase activity in the bead fraction compared to the crude input fraction (Cysteine-SpyCatcher [2]) | percent of beads that carry a bound mitochondrion (Cysteine-SpyCatcher [3])
1 | Plastid-SpyTag (OEP7-SpyTag) | 22.8% | – | –
2 | Mito-SpyTag (NtHxk1-SpyTag) (from UniProt Q9SEK2 1-44) | – | 5.4 fold | 31.1%

From PMC7465787
